The results in this text go back to patent US20050064518A1 (PURDUE PHARMA L P, published 2005).

To fix the notation:
T1: O772P 3-repeat recombinant protein (human)
T1 construct: Repeats are residues 14-452 of the entry
T1 chain: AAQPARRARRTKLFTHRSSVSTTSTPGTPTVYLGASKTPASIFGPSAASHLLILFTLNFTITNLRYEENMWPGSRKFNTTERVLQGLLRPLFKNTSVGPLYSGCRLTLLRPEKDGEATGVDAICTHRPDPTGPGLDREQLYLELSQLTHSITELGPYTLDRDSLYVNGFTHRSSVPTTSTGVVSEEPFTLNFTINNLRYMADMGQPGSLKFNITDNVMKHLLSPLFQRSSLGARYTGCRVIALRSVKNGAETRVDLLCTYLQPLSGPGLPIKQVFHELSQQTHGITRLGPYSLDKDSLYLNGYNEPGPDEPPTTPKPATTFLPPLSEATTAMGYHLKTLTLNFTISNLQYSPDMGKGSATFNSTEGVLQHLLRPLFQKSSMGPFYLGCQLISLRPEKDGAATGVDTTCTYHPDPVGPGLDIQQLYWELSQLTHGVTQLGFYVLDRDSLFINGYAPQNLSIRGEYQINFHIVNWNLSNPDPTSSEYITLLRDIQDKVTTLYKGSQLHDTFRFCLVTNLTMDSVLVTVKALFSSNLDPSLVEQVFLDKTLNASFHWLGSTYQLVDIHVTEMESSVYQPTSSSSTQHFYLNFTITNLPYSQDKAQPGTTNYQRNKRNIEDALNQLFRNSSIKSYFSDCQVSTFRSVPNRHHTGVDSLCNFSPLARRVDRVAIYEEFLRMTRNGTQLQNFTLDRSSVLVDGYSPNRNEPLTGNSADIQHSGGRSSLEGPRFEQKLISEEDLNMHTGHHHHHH

T2: O772P 3-repeat TM on transfected NIH/3T3 cells (human)
T2 construct: also called NIH/3T3 O772P 3-repeat
T2 chain: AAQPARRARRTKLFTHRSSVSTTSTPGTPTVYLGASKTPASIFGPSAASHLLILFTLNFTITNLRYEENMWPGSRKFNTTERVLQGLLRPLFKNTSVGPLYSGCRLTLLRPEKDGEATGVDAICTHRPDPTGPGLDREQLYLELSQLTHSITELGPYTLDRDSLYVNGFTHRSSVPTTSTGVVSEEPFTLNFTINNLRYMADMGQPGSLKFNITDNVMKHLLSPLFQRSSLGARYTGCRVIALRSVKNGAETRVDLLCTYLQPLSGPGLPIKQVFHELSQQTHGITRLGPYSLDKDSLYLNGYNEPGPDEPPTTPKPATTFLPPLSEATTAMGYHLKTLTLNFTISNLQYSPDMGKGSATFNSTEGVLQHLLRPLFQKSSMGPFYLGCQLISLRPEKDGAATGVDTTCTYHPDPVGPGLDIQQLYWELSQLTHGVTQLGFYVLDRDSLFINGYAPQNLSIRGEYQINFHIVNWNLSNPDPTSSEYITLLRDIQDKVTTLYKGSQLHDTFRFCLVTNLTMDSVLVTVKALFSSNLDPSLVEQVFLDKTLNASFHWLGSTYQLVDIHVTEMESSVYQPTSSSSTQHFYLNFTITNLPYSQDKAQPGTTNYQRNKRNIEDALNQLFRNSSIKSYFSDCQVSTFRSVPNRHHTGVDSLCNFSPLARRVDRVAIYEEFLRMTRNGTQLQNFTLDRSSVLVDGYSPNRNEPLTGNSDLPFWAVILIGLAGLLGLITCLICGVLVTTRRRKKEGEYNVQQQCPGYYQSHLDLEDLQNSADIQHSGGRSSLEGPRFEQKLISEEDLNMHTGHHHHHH

B1: monoclonal antibody 368.1 (antibody, V domains shown)
VH: EVQLQQSGPELVRTGASVKISCKASGYSFTGFYMHWVKQSLGKSLEWIGYVSCYTGATTYTQKFKGKATFTVDTSSSTAYMQLNSLTSEDSAVYYCAREGDYYSMDFWGQGTSVTVSS
VL: DVVMTQTPLSLPVSLGDQASISCRSSQSLERTNGNTYLHWYLQKPGQSPKLLIYKVSSRFSGVPDRFSGSGSGTDFTLKISRVEAEDLGIYFCSQTTHGPPTCGGGTKLEIK
notes: Murine hybridoma antibody
B2: monoclonal antibody 501.1 (antibody, V domains shown)
VH: QIQLVQSGPELKKPGETVQISCKASGYIFTDYGMNWVKQAPGKGLKWMGCINTYTGETIYSDDFRGRFAISLETSASTAFIQINNLKNEDAATYFCARGNYRDAIDYWGQGTSVTVSS
VL: DIKMTQSPSSIYASLGERVTITCKASQDIKSYLSWYQQKPWKSPKTLIYYATTLADGVPSRFSGSGSGQDYSLIINSLESDDIATYFCLHHDESPFTFGSGTKLEI
notes: Murine hybridoma antibody
B3: monoclonal antibody 117.1 (antibody, V domains shown)
VH: QVTLKESGPGILQPSQTLSLTCSFSGFSLSTPGMGVGWIRQPSGKGLEWLAHIWWDDFKRDNPALKSRLTISKDTSSSQVFLKIASVDTADTATYYCVRVDGNFLSWYFDVWGAGTTVTVSS
VL: DAVMTQTPLSLPVSLGDQASISCRSSQSLVHSNGNTYLHWYLQKPGQSPKLLIYKVSNRFSGVPDRFSGSGSGTDFTLRISRVEAEDLGVYFCSQSRYVPWTFGGGTKLEIK
notes: Murine hybridoma antibody

For the first experiment, the target named is T1, O772P 3-repeat recombinant protein. Briefly: ELISA competition, plate-bound O772P 3-repeat; competitor shed CA 125/O772P. The procedure: (§1) On the next day, the plates were washed with 200 μl 1×PBST (1× phosphate-buffered saline (PBS), 0.05% Tween 20) three times and blocked with 100 μl of 1×PBST containing 1% bovine serum albumin (BSA) for 2 hours at 37° C. […] After 1 hour incubation at 37° C., the plates were then washed with 1×PBST three times. For signal detection, 100 μl of HRP-conjugated sheep anti-mouse IgG (1:2000 dilution into 1×PBST+1% BSA, Amersham Biosciences) was added to each well and incubated for 1 hour at 37° C. The plates were washed again with 1×PBST three times. Finally, 100 μl¹ of a mixture of TMB substrate and H₂O₂ (1:1 ratio, KPL) was added into each well and the absorbance was measured at 405 nm with a plate reader (Molecular Devices Corp., Sunnyvale, Calif.). The assay was done in triplicate for each selected antibody and average values were calculated and presented. The percent inhibition compared to no competition was calculated for individual antibodies based on average values. Controls for blank and individual reagents were also included in each experiment.
Take B1: the “absorbance w/shed CA 125/O772P competitor (25-fold w/w excess)” value came out at 1.33 OD.
Same read-out and setting: under B2 stands 0.735 OD; under B3, 0.554 OD.

The target in the next experiment is T2, O772P 3-repeat TM on transfected …. Briefly: flow cytometry, NIH/3T3 cells expressing O772P 3-repeat TM; Ab 0.5 µg/ml. The procedure:
Cells (OVCAR-3 (ATCC Accession No. HTB-161), SK-OV3 (ATCC Accession No. HTB-77), NIH/3T3 (ATCC Accession No. CRL-1658), and NIH/3T3 cells transfected with a sequence that expresses O772P 3-repeat protein (SEQ ID NO:2)) were removed from culture plates by digestion with trypsin (0.25%). The cells were counted and viability was assessed by trypan blue (0.2%) exclusion. Cells were then centrifuged (500×g, 5 min) and resuspended in FACS buffer (1×DPBS containing 1% BSA and 0.1% sodium azide) to a concentration between 5-10×10⁷ cells/ml. Cells were then distributed at a volume of 100 μL/well into 96-well round bottom plates and centrifuged at 500×g for 3 minutes. Antibody supernatant was removed by aspiration, and 50 μl hybridoma supernatants diluted to 1 μg/ml and 0.5 μg/μl in FACS buffer and was added to each well containing cells. Murine IgG1 kappa (Sigma, St. Louis, Mo.) (either 2.0, 1.0, 0.5, 0.1 μg/μl) was included as a negative control and OC125 and M11 (DAKO Corp, Carpinteria, Calif.) were included as positive controls. Plates were incubated for 30 minutes at 4° C. with rocking. Cells were subsequently washed 2 times with FACS buffer (200 μl/well), with centrifugation and buffer aspiration following each wash. Goat anti-mouse IgG (Fc)-biotin (Sigma, St. Louis, Mo.) was diluted 1:1000 in FACS buffer and 50 μl was added to each well containing cells. Plates were incubated 30 minutes at 4° C. with rocking. Cells were then washed with FACS buffer as above. Streptavidin-Alexa-Four 488 (Molecular Probes, Eugene, Oreg.) was diluted 1:1000 into FACS buffer and 50 μl was added to each well containing cells. Plates were then incubated 30 minutes at 4° C. with […]. Cells were then washed with FACS buffer, as above. Cells were then resuspended in 1 ml of FACS buffer and transferred to Falcon 2052 tubes and analyzed on a Becton-Dickinson Immunocytometry Systems FACSCalibur flow cytometer (San Jose, Calif.).
Consider B1, for which the “% positive cells” value is 75%.
The same measure, in the same setting: as for B2, the figure is 85%.
Still for that read-out and setting: as for B3, the figure is 63%.

For the next experiment, the target named is T1, O772P 3-repeat recombinant protein. The experiment can be described thus: ELISA competition, plate-bound O772P 3-repeat; competitor soluble O772P 3-repeat. As for the experimental part: as §1
In the case of B1, the “absorbance w/O772P 3-repeat competitor (10 x w/w excess)” value is 0.915 OD.
Same read-out and setting: as for B2, the figure is 0.065 OD; as for B3, 0.071 OD.

Another experiment has the same target. The experiment can be described thus: ELISA competition, plate-bound O772P 3-repeat; no competitor. The procedure: as §1
With B1, the absorbance was 1.29 OD.
For the molecule B2, the absorbance came out at 0.856 OD.
The same measure, in the same setting: as for B3, the figure is 0.619 OD.
